The target of one experiment is Antithrombin III (plasma purified human AT-III), in complex with unfractionated full-length heparin (human) (UniProt P01008). As to the kind of experiment: inhibition of FIXa by AT-III/UFH, residual activity on Mesyl-D-CHG-Gly-Arg-AMC.
Regarding “FIXa D104N/K106S/N260S (from UniProt P00740 47-191; P00740 227-461) (enzyme)”, the kapp (second-order rate constant for inhibition) came out at 7e+06 M⁻¹ s⁻¹.

“FIXa R312Y (from UniProt P00740 47-191; P00740 227-461) (enzyme)” gave a kapp (second-order rate constant for inhibition) of 230000 M⁻¹ s⁻¹.

Substance “Catalyst Biosciences WT FIXa (from UniProt P00740 47-191; P00740 227-461) (enzyme)” gave a kapp (second-order rate constant for inhibition) of 2.4e+07 M⁻¹ s⁻¹.

“FIXa R338A/R403A (from UniProt P00740 47-191; P00740 227-461) (enzyme)”: the kapp (second-order rate constant for inhibition) came out at 840000 M⁻¹ s⁻¹.

“FIXa Y155F/R318Y/R338E/R403E (from UniProt P00740 47-191; P00740 227-461) (enzyme)” gave a kapp (second-order rate constant for inhibition) of 1000 M⁻¹ s⁻¹.

Regarding “FIXa R318Y/R338E/E410N (from UniProt P00740 47-191; P00740 227-461) (enzyme)”, the kapp (second-order rate constant for inhibition) was 280000 M⁻¹ s⁻¹.

Consider “FIXa R318E (from UniProt P00740 47-191; P00740 227-461) (enzyme)”, for which the kapp (second-order rate constant for inhibition) is 16000 M⁻¹ s⁻¹.

With “FIXa K228N/R318Y (from UniProt P00740 47-191; P00740 227-461) (enzyme)”, the kapp (second-order rate constant for inhibition) worked out at 1.2e+06 M⁻¹ s⁻¹.

“FIXa R318A/R403A (from UniProt P00740 47-191; P00740 227-461) (enzyme)” returned a kapp (second-order rate constant for inhibition) of 17000 M⁻¹ s⁻¹.

For the substance “FIXa N260S (from UniProt P00740 47-191; P00740 227-461) (enzyme)”, the kapp (second-order rate constant for inhibition) turned out to be 1.1e+06 M⁻¹ s⁻¹.

Turning to “FIXa D203N/F205T/R318Y (from UniProt P00740 47-191; P00740 227-461) (enzyme)”, the kapp (second-order rate constant for inhibition) is 61000 M⁻¹ s⁻¹.

Regarding “FIXa R338E (from UniProt P00740 47-191; P00740 227-461) (enzyme)”, the kapp (second-order rate constant for inhibition) turned out to be 270000 M⁻¹ s⁻¹.

In the case of “FIXa R318Y (from UniProt P00740 47-191; P00740 227-461) (enzyme)”, the kapp (second-order rate constant for inhibition) worked out at 640000 M⁻¹ s⁻¹.

In turn, “BeneFIX Coagulation FIX (T148A), activated (FIXa) (from UniProt P00740 47-191; P00740 227-461) (enzyme)” had a kapp (second-order rate constant for inhibition) of 1.6e+07 M⁻¹ s⁻¹.

“FIXa D203N/F205T (from UniProt P00740 47-191; P00740 227-461) (enzyme)” yielded a kapp (second-order rate constant for inhibition) of 810000 M⁻¹ s⁻¹.

Substance “FIXa T148A (from UniProt P00740 47-191; P00740 227-461) (enzyme)” returned a kapp (second-order rate constant for inhibition) of 1.6e+07 M⁻¹ s⁻¹.

Substance “FIXa D203N/F205T/R338E/R403E (from UniProt P00740 47-191; P00740 227-461) (enzyme)” came in with a kapp (second-order rate constant for inhibition) of 2000 M⁻¹ s⁻¹.

“FIXa D203N/F205T/K228N (from UniProt P00740 47-191; P00740 227-461) (enzyme)” gave a kapp (second-order rate constant for inhibition) of 1.1e+06 M⁻¹ s⁻¹.

In turn, “FIXa R318Y/E410N (from UniProt P00740 47-191; P00740 227-461) (enzyme)” gave a kapp (second-order rate constant for inhibition) of 1.1e+06 M⁻¹ s⁻¹.

In turn, “FIXa D203N/F205T/R338A (from UniProt P00740 47-191; P00740 227-461) (enzyme)” registered a kapp (second-order rate constant for inhibition) of 860000 M⁻¹ s⁻¹.

As to “FIXa R403E/E410N (from UniProt P00740 47-191; P00740 227-461) (enzyme)”, the kapp (second-order rate constant for inhibition) amounted to 4.8e+06 M⁻¹ s⁻¹.

The substance “FIXa K293A/R338A/R403A (from UniProt P00740 47-191; P00740 227-461) (enzyme)” had a kapp (second-order rate constant for inhibition) of 47000 M⁻¹ s⁻¹.

On to “FIXa D85N/D203N/F205T (from UniProt P00740 47-191; P00740 227-461) (enzyme)”, for which the kapp (second-order rate constant for inhibition) is 2.7e+06 M⁻¹ s⁻¹.

In turn, “FIXa K293E (from UniProt P00740 47-191; P00740 227-461) (enzyme)” registered a kapp (second-order rate constant for inhibition) of 1.2e+06 M⁻¹ s⁻¹.

Regarding “FIXa D203N/F205T/E410N (from UniProt P00740 47-191; P00740 227-461) (enzyme)”, the kapp (second-order rate constant for inhibition) turned out to be 2e+06 M⁻¹ s⁻¹.

“FIXa R318Y/R338E/R403E (from UniProt P00740 47-191; P00740 227-461) (enzyme)”: the kapp (second-order rate constant for inhibition) amounted to 1200 M⁻¹ s⁻¹.

Turning to “FIXa K228N/R338E/R403E (from UniProt P00740 47-191; P00740 227-461) (enzyme)”, the kapp (second-order rate constant for inhibition) was determined as 42000 M⁻¹ s⁻¹.

On to “FIXa R403E (from UniProt P00740 47-191; P00740 227-461) (enzyme)”, for which the kapp (second-order rate constant for inhibition) was found to be 110000 M⁻¹ s⁻¹.

Substance “FIXa R338E/R403E (from UniProt P00740 47-191; P00740 227-461) (enzyme)” had a kapp (second-order rate constant for inhibition) of 68000 M⁻¹ s⁻¹.

Substance “FIXa R403A (from UniProt P00740 47-191; P00740 227-461) (enzyme)” showed a kapp (second-order rate constant for inhibition) of 1.4e+06 M⁻¹ s⁻¹.

As to “FIXa D104N/K106S/R318Y/R338E/E410N (from UniProt P00740 47-191; P00740 227-461) (enzyme)”, the kapp (second-order rate constant for inhibition) is 210000 M⁻¹ s⁻¹.

With “FIXa K293A/R403A (from UniProt P00740 47-191; P00740 227-461) (enzyme)”, the kapp (second-order rate constant for inhibition) worked out at 81000 M⁻¹ s⁻¹.

With “FIXa D203N/F205T/R338E (from UniProt P00740 47-191; P00740 227-461) (enzyme)”, the kapp (second-order rate constant for inhibition) is 360000 M⁻¹ s⁻¹.

Substance “FIXa R338E/R403E/E410N (from UniProt P00740 47-191; P00740 227-461) (enzyme)” registered a kapp (second-order rate constant for inhibition) of 130000 M⁻¹ s⁻¹.

As to “FIXa K293E/R338E/R403E (from UniProt P00740 47-191; P00740 227-461) (enzyme)”, the kapp (second-order rate constant for inhibition) worked out at 31000 M⁻¹ s⁻¹.

“FIXa R318A (from UniProt P00740 47-191; P00740 227-461) (enzyme)”: the kapp (second-order rate constant for inhibition) worked out at 690000 M⁻¹ s⁻¹.

Consider “FIXa R338E/E410N (from UniProt P00740 47-191; P00740 227-461) (enzyme)”, for which the kapp (second-order rate constant for inhibition) was determined as 6.3e+06 M⁻¹ s⁻¹.

Substance “FIXa Y155F/R338E/R403E/E410N (from UniProt P00740 47-191; P00740 227-461) (enzyme)” returned a kapp (second-order rate constant for inhibition) of 32000 M⁻¹ s⁻¹.

Another experiment deals with plasma purified human AT-III (antithrombin III) in complex with unfractionated heparin (human) (UniProt P01008). As to the kind of experiment: residual FIXa activity on Mesyl-D-CHG-Gly-Arg-AMC after timed incubation with AT-III/UFH (0-500 nM AT-III, 1 uM UFH); kapp from K0.5.
As to “FIXa-R318Y/R338E/R403E/E410N/T412V (from UniProt P00740 47-191; P00740 227-461) (enzyme)”, the kapp (apparent second-order rate constant for inhibition) was 2900 M⁻¹ s⁻¹.

For “FIXa-R318Y/R338E/T343R/N346Y/R403E/E410N (from UniProt P00740 47-191; P00740 227-461) (enzyme)”, the kapp (apparent second-order rate constant for inhibition) was 11000 M⁻¹ s⁻¹.

As for “FIXa-D104N/K106S/K228N/K247N/N249S/R318Y/R338E/R403E/E410N (from UniProt P00740 47-191; P00740 227-461) (enzyme)”, the kapp (apparent second-order rate constant for inhibition) turned out to be 680 M⁻¹ s⁻¹.

In the case of “FIXa-K247N/N249S/R338E/R403E/E410N (from UniProt P00740 47-191; P00740 227-461) (enzyme)”, the kapp (apparent second-order rate constant for inhibition) amounted to 21000 M⁻¹ s⁻¹.

“FIXa-Y155F/R318Y/R338E/N346D/R403E/E410N (from UniProt P00740 47-191; P00740 227-461) (enzyme)”: the kapp (apparent second-order rate constant for inhibition) was 1600 M⁻¹ s⁻¹.

With “FIXa-Y155F/K247N/N249S/N260S/R318Y/R338E/R403E/E410N (from UniProt P00740 47-191; P00740 227-461) (enzyme)”, the kapp (apparent second-order rate constant for inhibition) is 430 M⁻¹ s⁻¹.

For the substance “FIXa-R318Y/R338E/N346D/R403E/E410N (from UniProt P00740 47-191; P00740 227-461) (enzyme)”, the kapp (apparent second-order rate constant for inhibition) stood at 1100 M⁻¹ s⁻¹.

In the case of “FIXa-R318Y/R338E/R403E/E410N/T412A (from UniProt P00740 47-191; P00740 227-461) (enzyme)”, the kapp (apparent second-order rate constant for inhibition) is 3800 M⁻¹ s⁻¹.

In the case of “FIXa-K247N/N249S/R318Y/R338E/R403E (from UniProt P00740 47-191; P00740 227-461) (enzyme)”, the kapp (apparent second-order rate constant for inhibition) was found to be 310 M⁻¹ s⁻¹.

Consider “FIXa-Y155F/K228N/K247N/N249S/R318Y/R338E/R403E/E410N (from UniProt P00740 47-191; P00740 227-461) (enzyme)”, for which the kapp (apparent second-order rate constant for inhibition) was 1100 M⁻¹ s⁻¹.

Turning to “FIXa-Y155F/N260S/R318Y/R338E/R403E/E410N (from UniProt P00740 47-191; P00740 227-461) (enzyme)”, the kapp (apparent second-order rate constant for inhibition) amounted to 2100 M⁻¹ s⁻¹.

Take “FIXa-T343R/N346Y (from UniProt P00740 47-191; P00740 227-461) (enzyme)”: the kapp (apparent second-order rate constant for inhibition) turned out to be 4.2e+06 M⁻¹ s⁻¹.

As to “FIXa-D104N/K106S/R318Y/R338E/T343R/R403E/E410N (from UniProt P00740 47-191; P00740 227-461) (enzyme)”, the kapp (apparent second-order rate constant for inhibition) worked out at 9100 M⁻¹ s⁻¹.

With “FIXa-R318Y/R338E/T412A (from UniProt P00740 47-191; P00740 227-461) (enzyme)”, the kapp (apparent second-order rate constant for inhibition) is 350000 M⁻¹ s⁻¹.

For the substance “FIXa-R318Y/R338E/T343R/N346D/R403E/E410N (from UniProt P00740 47-191; P00740 227-461) (enzyme)”, the kapp (apparent second-order rate constant for inhibition) was found to be 5100 M⁻¹ s⁻¹.

In the case of “FIXa-R318Y/R338E/T343R/R403E/E410N (from UniProt P00740 47-191; P00740 227-461) (enzyme)”, the kapp (apparent second-order rate constant for inhibition) came to 32000 M⁻¹ s⁻¹.

With “FIXa-Y155F/K247N/N249S/R318Y/R338E/R403E (from UniProt P00740 47-191; P00740 227-461) (enzyme)”, the kapp (apparent second-order rate constant for inhibition) worked out at 810 M⁻¹ s⁻¹.

For the substance “FIXa-Y155F/R318Y/R338E/T343R/R403E/E410N (from UniProt P00740 47-191; P00740 227-461) (enzyme)”, the kapp (apparent second-order rate constant for inhibition) was determined as 8600 M⁻¹ s⁻¹.

Source of the values: US20210238260A1.
